Legend:
[1] = biological target: GII.4 CHDC-1974 norovirus major capsid protein VP1, assembled as virus-like particles (VLPs) (human norovirus GII.4 (CHDC-1974)); experiment: cryo-EM structure
[2] = biological target: the molecule itself; experiment: cryo-EM structure

Molecule	stoichiometry N [1]	stoichiometry N [2]
GII.4 CHDC-1974 norovirus major capsid protein VP1, assembled as virus-like particles (VLPs) (natural protein)	240	–
GII.4 NSW-2012 norovirus major capsid protein VP1, assembled as virus-like particles (VLPs) (natural protein, human norovirus GII.4 (NSW-2012), UniProt K4LM89 1-540, looked up) MKMASSDANPSDGSAANLVPEVNNEVMALEPVVGAAIAAPVAGQQNVIDPWIRNNFVQAPGGEFTVSPRNAPGEILWSAPLGPDLNPYLSHLARMYNGYAGGFEVQVILAGNAFTAGKVIFAAVPPNFPTEGLSPSQVTMFPHIVVDVRQLEPVLIPLPDVRNNFYHYNQSNDPTIKLIAMLYTPLRANNAGDDVFTVSCRVLTRPSPDFDFIFLVPPTVESRTKPFSVPVLTVEEMTNSRFPIPLEKLFTGPSSAFVVQPQNGRCTTDGVLLGTTQLSPVNICTFRGDVTHITGSRNYTMNLASQNWNDYDPTEEIPAPLGTPDFVGKIQGVLTQTTRTDGSTRGHKATVYTGSADFAPKLGRVQFETDTDRDFEANQNTKFTPVGVIQDGGTTHRNEPQQWVLPSYSGRNTHNVHLAPAVAPTFPGEQLLFFRSTMPGCSGYPNMDLDCLLPQEWVQYFYQEAAPAQSDVALLRFVNPDTGRVLFECKLHKSGYVTVAHTGQHDLVIPPNGYFRFDSWVNQFYTLAPMGNGTGRRRAV	–	240

Reference: doi:10.1101/528240 (bioRxiv, 2019)
